# In US20250073202A1, “METHODS TO TREAT RENAL DISORDERS USING CALCIUM CHANNEL INHIBITORS” (The Trustees of Indiana University, priority 2018, published 2025):
# Legend:
# AKI-primed CD4+ cells [1] = test: In vitro stimulation of AKI-primed kidney CD4+ cells with Ang II and elevated Na+, IL17 response; format: cell-based, rat; details: inhibitor 10 μM; Ang II 10^-7 M and 170 mM Na+; 12-14 hours; cells 7 days post I/R
# Method: Total RNA was obtained from kidney using Trizol and the Zymogen RNA extraction kit and cDNA was prepared using MMLV enzyme (Invitrogen, Carlsburg, CA). Quantitative real time PCR (qPCR) using gene specific primers was performed using ABI 7500 (Applied Biosystems, Foster City, CA). mRNA values were calculated using 2^−ΔΔCt. Specific primers sequences for IL-6 (catalog #Rn01410330_m1), Kim-1 (#Rn00597703_m1) and IL17 (Rn01757168_m1) were purchased from ThermoFisher (Waltham, MA).
# (§1) To evaluate protein expression of IL17 or Orai1, Orai2 or Orai3, cells were restimulated with PMA and ionomycin for 6 hours in the presence of monensin (Golgistop, 1 μg·ml, BD Biosciences) permeabilized with saponin ([…]) and stained with relevant antibody. Cells were scanned using flow cytometry (FACSCalibur, BD Biosciences, San Jose, CA) and scans were analyzed using Flowjo software (Tree Star, Ashland, OR).
# CD4+T cells were isolated using the MACS Pan-T cell microbead separation kit (Miltenyl, Glabach, Germany). T cells were stimulated with plate bound anti-CD3 (precoated with 2 μg/mL) and soluble anti-CD28 (1 μg/mL). Cells (2.5×10^5 in 0.25 ml) were incubated 12-14 hours at 37° C. in RPMI medium supplemented with 10% FBS (Invitrogen) in a 48-well plate. Cells were challenged with Ang II (Sigma, 10^−7M) and raising the extracellular Na+ from 140 mM to 170 mM, using a 1 M NaCl solution. Calcium channel inhibitors 2ABP (10 μM, Sigma) AnCoA4 (10 μM, Millipore, Burlington, MA) and YM58483/BTP2 (10 μM) were included to evaluate effects on IL-17.
# AKI-primed CD4+ cells [2] = test: Fura-2 imaging of intracellular Ca2+ responses in AKI-primed CD4+ cells; format: cell-based, rat; details: superfusate with Ang II and elevated Na+; to levels similar to sham
# Method: To assess Ca^2+ responses, fura2 imaging was performed. Briefly, isolated CD4+ T cells were loaded with fura-2AM (2.5 μM, Sigma, St. Louis, MO) for 45 min, washed, placed on poly-lysine (Sigma) coated coverslips and placed in a superfusion chamber with physiological salt solution (PSS) containing 2 mM Ca^2+. The chamber was mounted on an inverted epifluorescence microscope and signal measured with alternating excitation at 340 and 380 nm and emission at 510 nm using the InCa^2+-imaging system (Intracellular Imaging Systems, Cincinnati, OH). Data were acquired at 1.5 Hz and representative tracings were smoothed to the 10 nearest neighbor points using GraphPad Prism. For analysis, an increase in signal intensity of >1 standard deviation from baseline was considered a positive response. Frequency of responding cells was determined from an average 53±19 cells for each animal.
# human blood CD4+ cells = test: In vitro stimulation of human blood CD4+ cells from AKI patients with elevated sodium, IL17 response; format: cell-based; details: 170 mM Na+, overnight (~12 hours)
# Method: For in vitro stimulation of human blood cells, primary T cells were isolated from fresh blood using Straight whole blood CD4 kit from Miltneyli Biotech (Miltenyli, San Diego, CA) according to manufactures' protocol. CD4+T cells were plated at a density of 1×10^6 cells/mL in RPMI medium supplemented with FBS. Cells were stimulated with human anti-CD3/CD28 dynabeads (Gibco; Catalogue no 11161D) along with labeled treatment overnight (˜12 hours). T cells were harvested and incubated with monensin for 6 hours, prior to staining for IL-17 (Table 4).
# [3] = test system: renal ischemia reperfusion injury; test: Bilateral renal ischemia/reperfusion (I/R) injury in rats, 24 hours after reperfusion (Study II); format: in vivo, rat
# Method: All studies used male Sprague-Dawley rats (250-300 g) that were purchased from Envigo (Indianapolis, IN). Rats were anesthetized with a cocktail of ketamine (100 mg·kg^−1, KetoVed, Vedco Inc, St. Joseph, MO) and xylazine (50 mg·kg^−1, AnaSed, Lloyd Inc, Shenandoah IA). Rats were placed on a heated surgical table to maintain body temperature. A midline incision and either unilateral (left) or bilateral renal ischemia (as indicated in Results) was induced by applying micro-aneurism clamps on the renal pedicles for a period of 40 min. Re-establishment of perfusion was verified by visual examination following removal of the clamps. Rats were provided post-operative analgesia using buprenorphine-SR (1 mg·kg^−1).
# Rats were allowed to recover for various periods of time as described in the Results. In Study I, lymphocytes were studied in vitro after recovery for either 2 or 7 days following I/R or sham surgery for evaluation of function in vitro or for FACS analysis. In Study II, the effect of SOCE on kidney injury was studied with the inhibitor YM58483/BPT2 (N-[4-[3,5-Bis(trifluoromethyl)-1H-pyrazol-1-yl]phenyl]-4-methyl-1,2,3-thiadiazole-5-carboxamide; Tocris/Bio-Techne Minneapolis, MN). Rats were pretreated p.o. 2-3 hours prior to surgery with YM58483.BPT2 (1 mg·kg^−1) in sugar-free chocolate pudding following dilution in 100% EtOH, at, a dose previously shown to affect T cell activation in rats. In some experiments, rats were also treated with the IL17Rc (150 ng/day i.p; R&D Systems). In addition, one experiment utilized a model of rhabdomyolysis, induced by injection of 50% glycerol (10 ml/kg) into the hindlimb muscle of rats following 16 hours of water restriction.
# To measure creatinine, tail blood was collected in heparin containing tubes and centrifuged to collect plasma. Plasma creatinine was measured using a Pointe Scientific Analyzer and Creatinine Assay reagents using methods outlined by the manufacturer (Pointe Scientific, Canton MI). Urine was collected for 24 hours by placing rats in metabolic cages and urine volume was determined gravimetrically. Urine creatinine was measured using a colorimetric assay adopted for microplate readers. Creatinine clearance was measured using UCr*V/PCr. […]
# Freshly harvested kidneys were minced and digested in liberase (2 μg/ml. Roche, Indianapolis IN) for 15 min at 37° C. using Gentle MACs (Miltenyli, San Diego, CA). The digested tissue was filtered through a 100-μm mesh and washed with RPMI containing 10% fetal bovine serum (Invitrogen). Mononuclear cells were isolated using Percol (Sigma) density gradient centrifugation.
# as §1
# The effect of SOCE on early ischemic kidney injury was studied with the inhibitor YM58483/BPT2 (N-[4-[3,5-Bis(trifluoromethyl)-1 H-pyrazol-1-yl]phenyl]-4-methyl-1,2,3-thiadiazole-5-carboxamide; Tocris/Bio-Techne Minneapolis, MN). Rats were pretreated 2-3 hours prior to surgery, p.o. in sugar-free chocolate pudding following dilution in 100% EtOH, at 1 mg·kg^−1, a dose previously shown affect T cell activation in rats. To evaluate if SOCE influences Th17 cells in AKI, rats were fed YM58483/BPT2 approximately 2 hours prior to […] and reperfusion. […] YM58483/2BPT2 also attenuated the infiltration of total CD4+ and CD8+ T-cells, B-cells, and dendritic cells following I/R (FIGS. 3C, 3D, 3E, and 3F).
# [4] = 24 hours following ischemia reperfusion, mean ± S.E.
Molecule,"increase in IL17+ cells (IL17 protein, FACS) (AKI-primed CD4+ cells [1])",increase of IL17 mRNA (AKI-primed CD4+ cells [1]),percentage of Ca2+-responding cells (AKI-primed CD4+ cells [2]),IL17 response to elevated extracellular sodium (human blood CD4+ cells),infiltration of total CD4+ T-cells in kidney (vs vehicle) ([3]; 24 hours following I/R),kidney CD4+/IL17+ cells (vs vehicle) ([3]; 24 hours following I/R),"CD4+ renal lymphocyte content [3, 4]","CD4+/IL-17+ cells [3, 4]","CD8+ cells renal lymphocyte content [3, 4]","CD8+IL-17+ cells [3, 4]","Serum Creatinine [3, 4]","Total IL-17+ cells [3, 4]"
"NCCOB(c1ccccc1)c1ccccc1 [2-ABP, 2-aminoethoxydiphenyl borate]",completely blocked,completely blocked,,,,,,,,,,
COc1cc2c(cc1-c1coc3c4c(ccc3c1=O)OC(C)(C)C=C4)OCO2 [AnCoA4],completely blocked,completely blocked,significantly attenuated,inhibited,,,,,,,,
"IL-17Rc: the IL17Rc receptor antagonist (R&D Systems), 150 ng/day i.p. (protein, UniProt Q8NAC3 21-538, looked up, extracellular domain) extracellular domain: LERLVGPQDATHCSPVSLEPWGDEERLRVQFLAQQSLSLAPVTAATARTALSGLSGADGRREERGRGKSWVCLSLGGSGNTEPQKKGLSCRLWDSDILCLPGDIVPAPGPVLAPTHLQTELVLRCQKETDCDLCLRVAVHLAVHGHWEEPEDEEKFGGAADSGVEEPRNASLQAQVVLSFQAYPTARCVLLEVQVPAALVQFGQSVGSVVYDCFEAALGSEVRIWSYTQPRYEKELNHTQQLPDCRGLEVWNSIPSCWALPWLNVSADGDNVHLVLNVSEEQHFGLSLYWNQVQGPPKPRWHKNLTGPQIITLNHTDLVPCLCIQVWPLEPDSVRTNICPFREDPRAHQNLWQAARLQLLTLQSWLLDAPCSLPAEAALCWRAPGGDPCQPLVPPLSWENVTVDKVLEFPLLKGHPNLCVQVNSSEKLQLQECLWADSLGPLKDDVLLLETRGPQDNRSLCALEPSGCTSLPSKASTRAARLGEYLLQDLQSGQCLQLWDDDLGALWACPMDKYIHKR",,,,,significantly reduced,significantly reduced,19229 ± 3175 cells/gram,1567 ± 294 cells/gram,4356 ± 559 cells/gram,251 ± 118 cells/gram,3.96 ± 1.2 mg/dL,8447 ± 1753 cells/gram
